Data as given in publication PMC12416549 (2024).
Substitutions are numbered along the chain they refer to. Names and notes keep the numbering of the source.

T1: TNFR1 (Homo sapiens, UniProt P19438)
T1 chain: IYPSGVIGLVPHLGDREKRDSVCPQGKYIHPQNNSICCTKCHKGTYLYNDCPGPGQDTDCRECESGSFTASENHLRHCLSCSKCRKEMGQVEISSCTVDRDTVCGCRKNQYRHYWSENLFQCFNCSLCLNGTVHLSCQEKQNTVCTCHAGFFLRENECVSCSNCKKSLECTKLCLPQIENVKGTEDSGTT

B1: E10Y (designed binder)
chain: MTLQELLREYALRRAEAEAFRYALELLAEKFPEQKEYLLDLAEEIESQIRSLSGVDVEDVRKFLDKEWAWVKELLAEHPAELAEVEAARAARLAELRAEVEAKVAA
B2: Q34M (designed binder)
chain: B1 chain with Y10E, Q34M
B3: S47Q (designed binder)
chain: B1 chain with Y10E, S47Q
B4: D40K (designed binder)
chain: B1 chain with Y10E, D40K
B5: E43H (designed binder)
chain: B1 chain with Y10E, E43H
B6: E101C (designed binder)
chain: B1 chain with Y10E, E101C
B7: A19G (designed binder)
chain: B1 chain with Y10E, A19G
B8: L52P (designed binder)
chain: B1 chain with Y10E, L52P
B9: R13H (designed binder)
chain: B1 chain with Y10E, R13H
B10: H78M (designed binder)
chain: B1 chain with Y10E, H78M
B11: L96V (designed binder)
chain: B1 chain with Y10E, L96V
B12: L64K (designed binder)
chain: B1 chain with Y10E, L64K
B13: E46D (designed binder)
chain: B1 chain with Y10E, E46D
B14: K72F (designed binder)
chain: B1 chain with Y10E, K72F
B15: K35L (designed binder)
chain: B1 chain with Y10E, K35L
B16: A90W (designed binder)
chain: B1 chain with Y10E, A90W
B17: E95N (designed binder)
chain: B1 chain with Y10E, E95N
B18: S51F (designed binder)
chain: B1 chain with Y10E, S51F
B19: A23N (designed binder)
chain: B1 chain with Y10E, A23N
B20: A17F (designed binder)
chain: B1 chain with Y10E, A17F
B21: R89S (designed binder)
chain: B1 chain with Y10E, R89S
B22: K62A (designed binder)
chain: B1 chain with Y10E, K62A
B23: E99L (designed binder)
chain: B1 chain with Y10E, E99L
B24: F63V (designed binder)
chain: B1 chain with Y10E, F63V
B25: E18L (designed binder)
chain: B1 chain with Y10E, E18L
B26: S51R (designed binder)
chain: B1 chain with Y10E, S51R
B27: D56P (designed binder)
chain: B1 chain with Y10E, D56P
B28: L52C (designed binder)
chain: B1 chain with Y10E, L52C
B29: R21W (designed binder)
chain: B1 chain with Y10E, R21W
B30: E18S (designed binder)
chain: B1 chain with Y10E, E18S
B31: A11G (designed binder)
chain: B1 chain with Y10E, A11G
B32: L6A (designed binder)
chain: B1 chain with L6A, Y10E
B33: K103E (designed binder)
chain: B1 chain with Y10E, K103E
B34: E5R (designed binder)
chain: B1 chain with E5R, Y10E
B35: R97S (designed binder)
chain: B1 chain with Y10E, R97S
B36: E10P (designed binder)
chain: B1 chain with Y10P
B37: I45A (designed binder)
chain: B1 chain with Y10E, I45A
B38: A17V (designed binder)
chain: B1 chain with Y10E, A17V
B39: Q34S (designed binder)
chain: B1 chain with Y10E, Q34S
B40: V104P (designed binder)
chain: B1 chain with Y10E, V104P
B41: P32R (designed binder)
chain: B1 chain with Y10E, P32R
B42: V57S (designed binder)
chain: B1 chain with Y10E, V57S
B43: R97E (designed binder)
chain: B1 chain with Y10E, R97E
B44: V71K (designed binder)
chain: B1 chain with Y10E, V71K
B45: L52S (designed binder)
chain: B1 chain with Y10E, L52S
B46: E16W (designed binder)
chain: B1 chain with Y10E, E16W
B47: V57N (designed binder)
chain: B1 chain with Y10E, V57N
B48: V85D (designed binder)
chain: B1 chain with Y10E, V85D
B49: D40Y (designed binder)
chain: B1 chain with Y10E, D40Y
B50: R13Q (designed binder)
chain: B1 chain with Y10E, R13Q
B51: E43Y (designed binder)
chain: B1 chain with Y10E, E43Y
B52: E44Q (designed binder)
chain: B1 chain with Y10E, E44Q
B53: E67P (designed binder)
chain: B1 chain with Y10E, E67P
B54: K35N (designed binder)
chain: B1 chain with Y10E, K35N
B55: A102G (designed binder)
chain: B1 chain with Y10E, A102G
B56: A87Y (designed binder)
chain: B1 chain with Y10E, A87Y
B57: L41I (designed binder)
chain: B1 chain with Y10E, L41I
B58: E10V (designed binder)
chain: B1 chain with Y10V
B59: D65P (designed binder)
chain: B1 chain with Y10E, D65P

Biological target: T1, TNFR1
Assay: yeast display SC50

| Binder | apparent Kd (screen) [nM] |
| --- | --- |
| B1 | 0.653 |
| B2 | 2.73 |
| B3 | 0.956 |
| B4 | 9.41 |
| B5 | 0.718 |
| B6 | 0.49 |
| B7 | 0.593 |
| B8 | 6.43 |
| B9 | 0.405 |
| B10 | 0.49 |
| B11 | 0.446 |
| B12 | 20.2 |
| B13 | 0.539 |
| B14 | 0.593 |
| B15 | 0.405 |
| B16 | 0.539 |
| B17 | 0.718 |
| B18 | 0.368 |
| B19 | 0.405 |
| B20 | 0.49 |

| Binder | apparent Kd (screen) [nM] |
| --- | --- |
| B21 | 0.79 |
| B22 | 0.593 |
| B23 | 0.653 |
| B24 | 1.27 |
| B25 | 0.539 |
| B26 | 1.05 |
| B27 | 6.43 |
| B28 | 2.48 |
| B29 | 0.49 |
| B30 | 0.405 |
| B31 | 0.956 |
| B32 | 1.54 |
| B33 | 0.79 |
| B34 | 0.49 |
| B35 | 0.956 |
| B36 | 12.5 |
| B37 | 13.8 |
| B38 | 0.446 |
| B39 | 0.49 |
| B40 | 0.718 |

| Binder | apparent Kd (screen) [nM] |
| --- | --- |
| B41 | 0.539 |
| B42 | 0.653 |
| B43 | 0.956 |
| B44 | 12.5 |
| B45 | 1.16 |
| B46 | 1.16 |
| B47 | 1.54 |
| B48 | 6.43 |
| B49 | 11.4 |
| B50 | 0.142 |
| B51 | 0.142 |
| B52 | 9.41 |
| B53 | 5.31 |
| B54 | 0.405 |
| B55 | 0.653 |
| B56 | 0.79 |
| B57 | 2.73 |
| B58 | 0.956 |
| B59 | 26.9 |
